Measurements from US20240400614A1, “CLEAVABLE PEPTIDES AND METHODS OF USE THEREOF” (Bright Peak Therapeutics AG, priority 2023, published 2024).
Square brackets hold non-standard residues; d marks the D form. Ends that are not written are not given here. Tyr(3-NO2) = N[C@@H](Cc1ccc(O)c([N+](=O)[O-])c1)C(=O)O; Nle = CCCC[C@H](N)C(=O)O; 2Abz = Nc1ccccc1C(=O)O

What was measured:
Type in all cases: biochemical
[1] = target: T1, MMP-9 (Homo sapiens, UniProt P14780); experiment: FRET peptide cleavage efficiency with MMP-9 (standard pH 7.5; also pH 6.5)
T1 construct: purchased SIGMA PF024

[2] = target: uPA (Homo sapiens, UniProt P00749); experiment: FRET peptide cleavage efficiency with uPA; settings: standard conditions (Table 8)
[3] = target: T2, MMP-7 (Homo sapiens, UniProt P09237); experiment: FRET peptide cleavage efficiency with MMP-7 (standard pH 7.5; also pH 6.5)
T2 construct: purchased SIGMA CC1059
T2 sequence (P09237 95-267): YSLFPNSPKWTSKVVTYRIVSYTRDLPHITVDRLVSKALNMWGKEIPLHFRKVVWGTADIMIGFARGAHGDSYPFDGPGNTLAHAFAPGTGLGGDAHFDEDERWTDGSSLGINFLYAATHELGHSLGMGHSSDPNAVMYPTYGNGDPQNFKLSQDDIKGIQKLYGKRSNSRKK

[4] = target: T3, matriptase (Homo sapiens, UniProt Q9Y5Y6); experiment: FRET peptide cleavage efficiency with matriptase; settings: standard conditions (Table 8)
T3 construct: purchased R&D Systems 3946-SEB
T3 sequence (Q9Y5Y6 615-855 limits assumed): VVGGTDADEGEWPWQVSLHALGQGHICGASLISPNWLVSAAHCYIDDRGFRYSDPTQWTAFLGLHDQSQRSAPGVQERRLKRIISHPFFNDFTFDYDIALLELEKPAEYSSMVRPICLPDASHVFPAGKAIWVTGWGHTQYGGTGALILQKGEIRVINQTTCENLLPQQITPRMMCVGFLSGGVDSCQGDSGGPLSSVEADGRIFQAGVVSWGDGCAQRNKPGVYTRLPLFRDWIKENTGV

[5] = target: T4, MMP-2 (Homo sapiens, UniProt P08253); experiment: FRET peptide cleavage efficiency with MMP-2; settings: for % cleavage MMP-2 t = 15 min: t = 15 min (Table 9)
T4 construct: purchased SIGMA PF023
T4 sequence (P08253 110-660): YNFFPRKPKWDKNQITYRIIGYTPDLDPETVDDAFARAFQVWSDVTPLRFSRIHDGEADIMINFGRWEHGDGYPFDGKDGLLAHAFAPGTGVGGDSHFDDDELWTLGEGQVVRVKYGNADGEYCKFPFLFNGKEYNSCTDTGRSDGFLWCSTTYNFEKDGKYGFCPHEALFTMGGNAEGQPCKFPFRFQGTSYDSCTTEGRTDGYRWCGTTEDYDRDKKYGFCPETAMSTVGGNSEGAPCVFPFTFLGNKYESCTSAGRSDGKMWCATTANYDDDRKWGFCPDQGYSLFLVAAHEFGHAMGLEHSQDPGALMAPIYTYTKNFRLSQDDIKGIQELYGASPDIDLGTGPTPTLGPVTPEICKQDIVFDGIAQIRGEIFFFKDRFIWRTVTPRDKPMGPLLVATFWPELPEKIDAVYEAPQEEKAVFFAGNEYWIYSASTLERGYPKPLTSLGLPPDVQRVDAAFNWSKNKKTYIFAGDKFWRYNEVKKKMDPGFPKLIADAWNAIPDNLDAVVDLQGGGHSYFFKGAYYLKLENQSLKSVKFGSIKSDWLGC

[6] = t = 15 min, standard conditions (Table 8)
[7] = t = 60 min, standard conditions (Table 8)
[8] = t = 120 min, standard conditions (Table 8)

T1 sequence (P14780 94-707): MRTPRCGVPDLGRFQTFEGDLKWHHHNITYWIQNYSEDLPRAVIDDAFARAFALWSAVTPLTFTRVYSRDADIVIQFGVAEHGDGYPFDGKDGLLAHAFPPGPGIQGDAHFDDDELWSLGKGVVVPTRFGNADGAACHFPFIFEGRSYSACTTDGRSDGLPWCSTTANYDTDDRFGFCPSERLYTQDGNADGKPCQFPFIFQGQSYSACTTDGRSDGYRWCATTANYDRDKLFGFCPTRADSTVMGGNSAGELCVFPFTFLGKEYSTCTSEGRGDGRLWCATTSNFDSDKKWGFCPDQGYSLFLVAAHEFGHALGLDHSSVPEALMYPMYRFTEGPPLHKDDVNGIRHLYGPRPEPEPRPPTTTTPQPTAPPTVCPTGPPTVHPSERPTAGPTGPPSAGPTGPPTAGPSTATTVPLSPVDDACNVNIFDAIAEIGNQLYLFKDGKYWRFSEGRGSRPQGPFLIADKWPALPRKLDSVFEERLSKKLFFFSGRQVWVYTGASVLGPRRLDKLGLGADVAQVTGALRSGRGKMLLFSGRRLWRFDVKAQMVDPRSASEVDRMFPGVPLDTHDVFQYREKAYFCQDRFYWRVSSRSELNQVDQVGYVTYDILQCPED

Substance | % cleavage MMP-9 t = 15 min ([1]; t = 15 min (Table 9)) [%] | % cleavage MMP-9 t = 15 min [1, 6] [%] | % cleavage MMP-9 t = 60 min ([1]; t = 60 min (Table 9)) [%] | % cleavage MMP-9 t = 60 min [1, 7] [%] | % cleavage MMP-9 t = 120 min ([1]; t = 120 min (Table 9)) [%] | % cleavage MMP-9 t = 120 min [1, 8] [%] | % vcleavage uPA t = 15 min [2] [%] | % cleavage uPA t = 60 min [2] [%] | % cleavage uPA t = 120 min [2] [%] | % cleavage MMP-7 t = 15 min ([3]; t = 15 min (Table 9)) [%] | % cleavage MMP-7 t = 15 min [3, 6] [%] | % cleavage MMP-7 t = 60 min ([3]; t = 60 min (Table 9)) [%] | % cleavage MMP-7 t = 60 min [3, 7] [%] | % cleavage MMP-7 t = 120 min ([3]; t = 120 min (Table 9)) [%] | % cleavage MMP-7 t = 120 min [3, 8] [%] | % cleavage Matriptase t = 15 min [4] [%] | % cleavage Matriptase t = 60 min [4] [%] | % cleavage Matriptase t = 120 min [4] [%] | % cleavage MMP-2 t = 15 min [5] [%] | % cleavage MMP-2 t = 60 min ([5]; t = 60 min (Table 9)) [%] | further results
SGRVQPLVD (not fully specified (N-terminus, C-terminus)) [LNK047] | 1 | 1 | 2 | 2 | 4 | 4 | 1 | 1 | 2 | 20 | 20 | 65 | 65 | 88 | 88 | 4 | 17 | 33 | 2 | 5 | % cleavage MMP-2 t = 60 min [5, 7]: 5%; % cleavage MMP-2 t = 120 min ([5]; t = 120 min (Table 9)): 9%; % cleavage MMP-2 t = 120 min [5, 8]: 9%
SGRVY-Nle-LQG ([2Abz]SGRVY[Nle]LQG[Tyr(3-NO2)]-NH2) [LNK045] | 0 | 0 | 0 | 0 | 0 | 0 | 0 | 0 | 0 | 0 | 0 | 0 | 0 | 0 | 0 | 0 | 0 | 0 | 0 | 0 | % cleavage MMP-2 t = 60 min [5, 7]: 0%; % cleavage MMP-2 t = 120 min ([5]; t = 120 min (Table 9)): 0%; % cleavage MMP-2 t = 120 min [5, 8]: 0%
